The target of experiment [1] is CHD4 PHD2 finger, wild type (UniProt Q14839). Nature of the experiment: other fluorescence titration + NMR titration.
For experiment [2] the target is unchanged. The experiment in a line: other fluorescence titration.
The target of a further experiment is CHD4 PHD2 finger C460W (UniProt Q14839). Nature of the experiment: NMR titration.
For the next experiment, the target named is CHD4 PHD2 finger E447A (UniProt Q14839). The experiment in a line: NMR titration.

As a reminder, the Kd is the free concentration of one partner at which half of the binding sites on the other are occupied at equilibrium, for simple one-to-one binding. As for H3K4me1 peptide (affinity measurements), in experiment [1], the dissociation constant (Kd) turned out to be 300 µM. On the same count and under the same terms, the figure for H3K4me2 peptide (affinity measurements) is 1000 µM. In experiment [2], H3K9ac peptide (20-mer) returned a Kd of 0.6 µM.

Substance “H3K9me3 peptide (12-mer histone tail peptide)” gave a Kd in experiment [2] of 0.9 µM. For the substance “histone H3 peptide in which the primary amino group of Ala1 was acetylated”, in experiment [1], the dissociation constant Kd amounted to 400 µM. Regarding “unmodified H3 peptide (12-mer histone tail peptide)”, the Kd with CHD4 PHD2 finger C460W was 3700 µM; with CHD4 PHD2 finger E447A it was 900 µM.

(Values after article PMC2885444.)
